According to patent publication US20100048482A1 (Stanford University, published 2010):

Target: heat shock protein 90 (HSP90), endogenous, rat heart (rat, UniProt P82995 2-733, limits assumed)
Experiment: co-immunoprecipitation and western blot, mitochondria of rat hearts after IR with or without 1 µM ψεHSP90 peptide
Protocol: 200-500 μg of mitochondrial or cytosolic protein was diluted into 1 ml of IP Lysis Buffer (150 mM NaCl, 10 mM Tris-HCl, 5 mM EDTA, 0.1% Triton X-100, pH=7.4, containing Sigma Protease Inhibitor 1 and Sigma Phosphatase Inhibitors 1 and 2). […] 10 μg of Protein A/G Beads (Santa Cruz Biotechnology) were added and the mixture was incubated overnight at 4° C. with inversion mixing. Beads were then centrifuged, washed 3× in IP Lysis Buffer, then re-suspended in sample buffer. Immunoprecipitated proteins were separated on 10% SDS-PAGE gels. […] A beads alone group was also included for each sample set to assess any non-specific protein binding to the beads.

fold increase in co-immunoprecipitation with ψεHSP90 peptide treatment against IR alone: ~4 fold
B1: epsilon protein kinase C (εPKC), endogenous, rat heart (enzyme)
chain: MVVFNGLLKIKICEAVSLKPTAWSLRHAVGPRPQTFLLDPYIALNVDDSRIGQTATKQKTNSPAWHDEFVTDVCNGRKIELAVFHDAPIGYDDFVANCTIQFEELLQNGSRHFEDWIDLEPEGKVYVIIDLSGSSGEAPKDNEERVFRERMRPRKRQGAVRRRVHQVNGHKFMATYLRQPTYCSHCRDFIWGVIGKQGYQCQVCTCVVHKRCHELIITKCAGLKKQETPDEVGSQRFSVNMPHKFGIHNYKVPTFCDHCGSLLWGLLRQGLQCKVCKMNVHRRCETNVAPNCGVDARGIAKVLADLGVTPDKITNSGQRRKKLAAGAESPQPASGNSPSEDDRSKSAPTSPCDQELKELENNIRKALSFDNRGEEHRASSSTDGQLASPGENGEVRQGQAKRLGLDEFNFIKVLGKGSFGKVMLAELKGKDEVYAVKVLKKDVILQDDDVDCTMTEKRILALARKHPYLTQLYCCFQTKDRLFFVMEYVNGGDLMFQIQRSRKFDEPRSGFYAAEVTSALMFLHQHGVIYRDLKLDNILLDAEGHSKLADFGMCKEGILNGVTTTTFCGTPDYIAPEILQELEYGPSVDWWALGVLMYEMMAGQPPFEADNEDDLFESILHDDVLYPVWLSKEAVSILKAFMTKNPHKRLGCVAAQNGEDAIKQHPFFKEIDWVLLEQKKMKPPFKPRIKTKRDVNNFDQDFTREEPILTLVDEAIVKQINQEEFKGFSYFGEDLMP
notes: Endogenous protein in mitochondrial or cytosolic fractions of Wistar rat hearts, immunoprecipitated from lysate; also called PKCε; epsilon PKC
